In data set [1] the target is iASPP CTD with N813 and Y814 mutated (UniProt Q8WUF5). Description: not stated; affinities of peptides for iASPP CTD shown in Supplementary Fig. S5B, C, E; the text does not name the method.
Data set [2] has as its target iASPP SH3 (Homo sapiens) (UniProt Q8WUF5). Conditions: cited from earlier work.
Data set [3] has as its target iASPP C-terminal domain (CTD) (UniProt Q8WUF5). Description: ITC; peptide titrated to the CTD or SH3 domain; VP-ITC; 25 mM HEPES pH 7.5, 150 mM NaCl, 500 µM TCEP; single-site binding model (AB hetero association). Background: ITC needs no label: the signal is the heat of the interaction.
Data set [4] has as its system p63 DBD-TD WT. Description: ELISA. The settings on record: ELISA: DPBS, 0.1% Tween-20, 10% Superblock, RT, 1 h; DNA pull-down: 50 mM Tris pH 8.0, 150 mM NaCl, 0.1% Tween-20, 4 C, 3 h. On the technique in general: ELISA stands for enzyme-linked immunosorbent assay.
Data set [5] has as its target iASPP CTD (UniProt Q8WUF5). Description: ITC; peptide or DBD titrated to ASPP CTD; VP-ITC; 25 mM HEPES pH 7.5, 150 mM NaCl, 500 µM TCEP; AB hetero association (single-site) model.
In data set [6] the target is T1, ASPP2 CTD (UniProt Q13625 925-1128).
T1 chain: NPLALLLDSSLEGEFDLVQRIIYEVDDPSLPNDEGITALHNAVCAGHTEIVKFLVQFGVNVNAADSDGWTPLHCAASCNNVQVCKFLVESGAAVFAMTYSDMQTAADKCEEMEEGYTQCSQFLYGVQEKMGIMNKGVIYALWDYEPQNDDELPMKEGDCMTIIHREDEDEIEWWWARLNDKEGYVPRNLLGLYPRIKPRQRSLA
Description: ITC.

The target of data set [7] is iASPP CTD (UniProt Q8WUF5). Description: NMR titration; unlabelled p63 linker peptide (up to 500 µM) with 100 µM 15N-iASPP CTD; 288 K; 25 mM HEPES pH 7.0, 50 mM NaCl, 5 mM DTT; KD from CSPs of selected residues of the SH3 domain, one-site model.
In data set [8] the target is T2, iASPP C-terminal domain (CTD) (UniProt Q8WUF5 625-828).
T2 construct: iASPP C-terminal domain (four ankyrin repeats and SH3 domain); The limits 625-828 are printed for the CTD in the crystallisation fusion; no separate limits are printed for the CTD used in ITC and NMR; For NMR the same construct was 15N-labelled (M9 medium); also called iASPP CTD; source: E. coli BL21(DE3) Rosetta, purified (IMAC, TEV cleavage, reverse IMAC, ion exchange, SEC); not shown: His10, …
T2 sequence (looked up): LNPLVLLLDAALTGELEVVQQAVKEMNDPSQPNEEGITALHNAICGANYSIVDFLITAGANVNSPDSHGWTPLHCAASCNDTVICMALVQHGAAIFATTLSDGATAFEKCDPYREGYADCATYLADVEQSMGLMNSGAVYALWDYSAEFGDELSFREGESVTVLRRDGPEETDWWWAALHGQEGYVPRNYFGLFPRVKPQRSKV
Description: ITC; peptide titrated to the CTD or SH3 domain; VP-ITC; 25 mM HEPES pH 7.5, 150 mM NaCl, 500 µM TCEP; single-site binding model (AB hetero association). Conditions: both partners purified.

The target of data set [9] is T3, iASPP CTD N813A Y814A double mutant (UniProt Q8WUF5 625-828, N813A | Y814A).
T3 construct: iASPP C-terminal domain with N813A and Y814A; limits as for the iASPP CTD (amino acids 625-828, printed for the crystallised fusion); also called iASPP NY; N813A Y814A iASPP double mutant; source: E. coli BL21(DE3) Rosetta, purified (IMAC, TEV cleavage, reverse IMAC, ion exchange, SEC); not shown: His10, N-terminal, cleaved
T3 sequence (looked up): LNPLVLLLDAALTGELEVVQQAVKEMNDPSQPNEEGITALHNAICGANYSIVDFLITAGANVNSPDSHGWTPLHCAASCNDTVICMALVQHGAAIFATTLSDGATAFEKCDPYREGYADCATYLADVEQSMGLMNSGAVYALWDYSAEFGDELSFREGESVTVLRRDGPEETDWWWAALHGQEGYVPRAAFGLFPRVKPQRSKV
The data set is described as above. Conditions: both partners purified.

In data set [10] the target is T4, iASPP CTD (UniProt Q8WUF5 625-828).
T4 chain: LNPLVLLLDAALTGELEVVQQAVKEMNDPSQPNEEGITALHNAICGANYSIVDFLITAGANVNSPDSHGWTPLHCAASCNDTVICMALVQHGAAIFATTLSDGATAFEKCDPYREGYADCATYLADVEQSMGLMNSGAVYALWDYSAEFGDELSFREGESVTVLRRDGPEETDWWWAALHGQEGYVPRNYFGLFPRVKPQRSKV
Description: ITC.

The target of data set [11] is T5, iASPP CTD (UniProt Q8WUF5 625-828).
T5 construct: iASPP, C-terminal domain (CTD: ankyrin repeats and SH3 domain), amino acids 625-828; In the crystal structure this stretch stood fused behind the p63 peptide; also called iASPP CTD (amino acids 625-828); 15N-labelled iASPP CTD; source: E. coli BL21(DE3) Rosetta, purified (IMAC, TEV cleavage, reverse IMAC, ion exchange, SEC); for NMR grown in M9 minimal medium (15N or 15N,13C labelled); not …
T5 sequence (looked up): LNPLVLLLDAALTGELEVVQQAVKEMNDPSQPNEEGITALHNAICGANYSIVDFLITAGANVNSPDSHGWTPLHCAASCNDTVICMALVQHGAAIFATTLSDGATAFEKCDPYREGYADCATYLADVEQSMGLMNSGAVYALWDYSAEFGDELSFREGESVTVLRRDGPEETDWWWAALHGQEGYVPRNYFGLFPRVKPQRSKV
Description: not stated; affinities of peptides for iASPP CTD shown in Supplementary Fig. S5B, C, E; the text does not name the method. Conditions: both partners purified.

The target of data set [12] is T2, iASPP C-terminal domain (CTD). Description: ITC; peptide titrated to the CTD or SH3 domain; VP-ITC; 25 mM HEPES pH 7.5, 150 mM NaCl, 500 µM TCEP; single-site binding model (AB hetero association). The settings on record: both partners purified. This is another data set of the same source.

Values joined by “and” are separate entries in the source; they are usually repeats but may differ in a detail not shown here. Identical values can stand only once.

Regarding p63 linker peptide, the fold reduction of the affinity against wild-type iASPP CTD in data set [1] turned out to be 2 fold.
One may read the Kd as the constant that tells how readily two partners part at equilibrium. iASPP: the Kd in data set [2] was 45 µM.
Take “optimized p63 linker peptide (p63opt, 331-344)”: the Kd in data set [3] amounted to 1.65 µM.
On the same count and under the same terms, next, p63 linker pT335 peptide: 132 µM.
Molecule p63 linker acK336 peptide gave a Kd in data set [3] of 94.3 µM.
With p21 promoter RE 20 bp, the Kd in [4] stood at 115 nM.

B1: p63 linker peptide (peptide)
chain: GDGTKRPFRQN
Regarding B1, the results for the Kd in data set [5], in [6] and in [7] were 90 µM, 288 µM and 64 to 105 µM, respectively.

B2: p63 linker peptide (331-344) (peptide)
peptide: NGDGTKRPFRQNTH
notes: p63 linker region between DBD and OD, residues 331-344; also called p63 peptide (331-344); p63 linker WT
Regarding B2, the dissociation constant (Kd) in data set [8] was 148 µM and 70.1 µM; in [9] it was 186 µM.

B3: p53 linker peptide (peptide)
chain: PPGSTKRALPNNTS
modifications: limits not given; taken as the region aligned to p63 331-344
As to B3, the Kd in [10] stood at 135 µM; in data set [6], 172 µM.

B4: p53 linker peptide (peptide)
chain: PPGSTKRALPNNTS
modifications: limits not given; taken as the region aligned to p63 linker peptide 331-344 (p53 R248 = p63 R279, K305 = K336)
For B4, binding in [8] was put at a Kd of 55.2 µM.

B5: p73 linker peptide (peptide)
chain: NGAASKRAFKQSPP
modifications: limits not given; taken as the region aligned to p63 331-344 (p63 K336 = p73 K327)
On to B5, for which the Kd in data set [10] amounted to 33.8 µM; in [6], 92.9 µM.

B6: p63 DBD (domain or fragment)
chain: SPAIPSNTDYPGPHSFDVSFQQSSTAKSATWTYSTELKKLYCQIAKTCPIQIKVMTPPPQGAVIRAMPVYKKAEHVTEVVKRCPNHELSREFNEGQIAPPSHLIRVEGNSHAQYVEDPITGRQSVLVPYEPPQVGTEFTTVLYNFMCNSSCVGGMNRRPILIIVTLETRDGQVLGRRCFEARICACPGRDRKADEDSIRKQ
modifications: one Zn2+ bound; start from the paper's DBD constructs (123 + 39 = 162), end from the DNA_BIND feature (362 = paper 323)
B6: the Kd in data set [6] amounted to 13.6 µM.

B7: p63 linker region with the degenerate motif completed to a canonical class II SH3 domain binding motif (peptide)
chain: GDGPKRPFRQN
In [11], B7 registered a dissociation constant (Kd) of 1700 nM.

B8: PP1α peptide (amino acids 313-326) (peptide, UniProt P62136 313-326, looked up)
peptide: NPGGRPITPPRNSA
notes: also called PP1α (313-326)
On to B8, for which the Kd in [12] worked out at 186 nM.

Values taken from article PMC11704248, “Alternative splicing in the DBD linker region of p63 modulates binding to DNA and iASPP in vitro” (Cell Death & Disease, 2025).
